For the assay, the target named is HA–TDP-43–FKBP.

Among the data in article PMC12394070 are solubility assay: share of TDP-43 in the insoluble fraction after heat stress with rapamycin (80% without rapamycin) (% of TDP-43 in the insoluble fraction) values, retold here.

FRB–PML–Myc gave a solubility assay: share of TDP-43 in the insoluble fraction after heat stress with rapamycin (80% without rapamycin) (% of TDP-43 in the insoluble fraction) of 20.
